The nature of this test: FRET fluorescence emission response of GA biosensors to GA. The class given is binding. The settings on record: FIG. 9. The text has this:
FIG. 9 depicts the fluorescence emission curves of a GA biosensor in response to GA. Also depicted are the GA responses of biosensor mutant variants. A: GA response of SMSX39L10.DR43 (RGA2 and GID1C sub-domains, L10 linker, Venus and Cerulean fluorescent proteins).
Expression and screening hormone biosensors using Saccharomyces cerevisiae as a eukaryotic host cell to better express the eukaryotic hormone binding domains. S. cerevisiae can be adapted to a high-throughput expression system. A new library of GATEWAY™ destination vectors was created for expression in yeast (Table IV, FIG. 2). Although expression of SMS in S. cerevisiae was successful as determined by fluorescence emissions, purification of sensors from the host cells was not possible because of cleavage of the hormone binding domains of the SMS proteins upon cell lysis, which can be important because the rate of transport of many plant hormones into yeast cells is low. […] SMS proteins were subsequently screened from cell lysates and after purification using metal-affinity chromatography, if the clones included an N-terminal 6HIS tag.
Subsequent experiments identified protocols for yeast cell transformation, culture and lysis, metal-affinity chromatography, and fluorescence analysis after hormone treatment in a 96-well format. Thus, a novel high-throughput platform for creation and screening of SMS had been developed. […]

B1: GID1C(S114A): GA biosensor mutant variant, mutation of a GA binding residue of GID1C (protein, UniProt Q940G6 2-344, looked up, variant S114A)
Gibberellin receptor GID1C: AGSEEVNLIESKTVVPLNTWVLISNFKLAYNLLRRPDGTFNRHLAEFLDRKVPANANPVNGVFSFDVIIDRQTNLLSRVYRPADAGTSPSITDLQNPVDGEIVPVIVFFHGGAFAHSSANSAIYDTLCRRLVGLCGAVVVSVNYRRAPENRYPCAYDDGWAVLKWVNSSSWLRSKKDSKVRIFLAGDSSGGNIVHNVAVRAVESRIDVLGNILLNPMFGGTERTESEKRLDGKYFVTVRDRDWYWRAFLPEGEDREHPACSPFGPRSKSLEGLSFPKSLVVVAGLDLIQDWQLKYAEGLKKAGQEVKLLYLEQATIGFYLLPNNNHFHTVMDEIAAFVNAECQ
modifications: within FRET biosensor
For B1, the “GA affinity / GA response of biosensor” value is listed as “reduced GA affinity”.

B2: GID1C P98A: GA biosensor mutant variant rendering GID interaction with DELLA constitutive; control (protein, UniProt Q940G6 2-344, looked up, variant P98A)
Gibberellin receptor GID1C: AGSEEVNLIESKTVVPLNTWVLISNFKLAYNLLRRPDGTFNRHLAEFLDRKVPANANPVNGVFSFDVIIDRQTNLLSRVYRPADAGTSPSITDLQNAVDGEIVPVIVFFHGGSFAHSSANSAIYDTLCRRLVGLCGAVVVSVNYRRAPENRYPCAYDDGWAVLKWVNSSSWLRSKKDSKVRIFLAGDSSGGNIVHNVAVRAVESRIDVLGNILLNPMFGGTERTESEKRLDGKYFVTVRDRDWYWRAFLPEGEDREHPACSPFGPRSKSLEGLSFPKSLVVVAGLDLIQDWQLKYAEGLKKAGQEVKLLYLEQATIGFYLLPNNNHFHTVMDEIAAFVNAECQ
modifications: within FRET biosensor
notes: control
For the molecule B2, the “GA affinity / GA response of biosensor” value was “GA non-responsive”.

(Values after patent publication US20140090111A1, “Plant Hormone Biosensors” (Carnegie Institution of Washington, priority 2012, published 2014).)
